This test has as its target T1, GST-NEMO(1-196) (UniProt Q9Y6K9 1-196).
T1 construct: range 1-196; Expressed in E. coli from pGEX4T3-GST-NEMO(1-196) and purified on glutathione-Sepharose; Used with the GST tag in the HTRF assay (30 nM); also called Recombinant GST-NEMO; NF-κB essential modifier; not shown: glutathione S-transferase (GST) tag encoded by the pGEX4T3 vector
Put plainly: HTRF competition, NEMO-IKK interaction (FIG. 6). The method, then: The plate was incubated for 2 h at room temperature. […] The data was analyzed using GraphPad Prism 6.0 and IC₅₀ values were obtained by fitting the data to the dose-response inhibition curves.
On the technique in general: TR-FRET usually uses a lanthanide donor and a delayed reading to cut background.

Square brackets hold non-standard residues; d marks the D form. Ends that are not written are not given here. 2Nal = N[C@@H](Cc1ccc2ccccc2c1)C(=O)O

T1 sequence (Q9Y6K9 1-196): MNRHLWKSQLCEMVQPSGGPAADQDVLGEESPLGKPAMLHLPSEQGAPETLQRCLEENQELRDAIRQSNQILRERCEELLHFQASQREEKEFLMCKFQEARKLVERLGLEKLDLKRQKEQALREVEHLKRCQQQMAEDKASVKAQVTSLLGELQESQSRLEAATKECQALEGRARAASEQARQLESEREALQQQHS

Regarding RRRR[2Nal]FTALDWSWLQT [RRRRΦFTALDWSWLQT], the IC50 was found to be 1600 nM.

As to RRRR[2Nal]FCALDWSWLQC (cysteine pairing not given here) [RRRRΦFCALDWSWLQC], the 50% inhibitory concentration (IC50) was 1400 nM.

The term IC50 denotes the concentration that gives 50% inhibition. Read a high IC50 as weaker potency in that assay.

The values above are taken from patent US20190282654A1 (OHIO STATE INNOVATION FOUNDATION, published 2019).
